Results as given in patent US20230220053A1 (published 2023).
Where two headings read alike, the source gives them in different places.

B1: 2020EP54-B12 IgG1 (antibody, V domains shown)
VH: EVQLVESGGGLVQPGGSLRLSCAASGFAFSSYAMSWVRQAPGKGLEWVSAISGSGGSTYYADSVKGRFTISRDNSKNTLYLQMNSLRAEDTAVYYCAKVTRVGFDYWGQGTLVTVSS
VL: SYELTQPPSVSVAPGKTARITCGGNNIGSKSVHWYQQKPGQAPVLVIYYDSDRPSGIPERFSGSNSGNTATLTISRVEAEDEADYYCQVWDSSSDVVFGGGTKLTVL
notes: also called 2020EP054-B12; EP054-B12, IgG1
B2: 2020EP54-E12 IgG1 (antibody, V domains shown)
VH: EVQLVESGGGLVQPGGSLRLSCAVTGFIVSSNYMNWVRQAPGKGLEWVSVIYSGGTTYYADSVKGRFTISRDKSKNTLYLQMNNLRAEDTAMYYCATLGNDYGDYGTDYWGQGTLVTVSS
VL: QLVLTQPPSVSVSPGQTASISCSGDRLGQKYTSWYQQRPGQSPVLIMYQDNKRPSGIPERFSGSNSGNTATLTISGIQSMDEADYYCQVWDSGSDHAVFGGGTQLTVL
notes: also called 2020EP054-E12; EP054-E12, IgG1
B3: 2020EP54-E12 scFv (scFv)
scFv: EVQLVESGGGLVQPGGSLRLSCAVTGFIVSSNYMNWVRQAPGKGLEWVSVIYSGGTTYYADSVKGRFTISRDKSKNTLYLQMNNLRAEDTAMYYCATLGNDYGDYGTDYWGQGTLVTVSSGGGGSGGGGSGGGGSQLVLTQPPSVSVSPGQTASISCSGDRLGQKYTSWYQQRPGQSPVLIMYQDNKRPSGIPERFSGSNSGNTATLTISGIQSMDEADYYCQVWDSGSDHAVFGGGTQLTVL
notes: also called 2020EP054-E12
B4: 2020EP54-E10 scFv (scFv)
scFv: QVQLVQSGAEVRKPGSSVKVSCKASGGTFSSFAISWVRQAPGQGLEWMGGIIPIFDTATYAQNFQGRVRMTADESTNTAYMELSSLTSEDTAVYYCARSTSYYDSRGDYKVGDFDYWGQGTLVTVSSGGGGSGGGGSGGGGSAIRMTQSPSSLSASVGDRVTITCQASQDISNYLNWYQQKPGKAPKLLIYDASNLETGVPSRFSGSGSGTDFTFTISSLQPEDIATYYCQQYDNLPLTFGGGTKVEIK
notes: also called 2020EP054-E10
B5: 2020EP54-E10 IgG1 (antibody, V domains shown)
VH: QVQLVQSGAEVRKPGSSVKVSCKASGGTFSSFAISWVRQAPGQGLEWMGGIIPIFDTATYAQNFQGRVRMTADESTNTAYMELSSLTSEDTAVYYCARSTSYYDSRGDYKVGDFDYWGQGTLVTVSS
VL: not shown
notes: also called 2020EP054-E10

Key:
[1] = biological target: T1, S1 protein of SARS-CoV-2 (recombinant, construct not stated) (SARS-CoV-2, UniProt P0DTC2 16-685); assay: SPR (Biacore T200), IgG captured on protein A chip, S1 injected
[2] = biological target: T2, RBD of SARS-CoV-2 spike protein S1 (recombinant, construct not stated) (SARS-CoV-2, UniProt P0DTC2 328-533); assay: SPR (Biacore T200), IgG captured on protein A chip, RBD injected
T2 construct: also called SARS-COV-2, RBD; RBD-AF647

[3] = biological target: T3, RBD of SARS-COV (ACRO Biosciences) (SARS-COV, UniProt P59594 306-527); assay: ELISA, SARS-COV RBD coated, IgG titrated, anti-human Fc HRP
T3 construct: domain: RBD; also called RBD-SARS; SARS-COV, RBD

[4] = biological target: T4, S1 protein of SARS-COV (ACRO Biosciences) (SARS-COV, UniProt P59594 14-667); assay: ELISA, SARS-COV S1 coated, IgG titrated, anti-human Fc HRP
T4 construct: domain: S1

[5] = biological target: T1, S1 protein of SARS-CoV-2 (recombinant, …); assay: ELISA, S1 coated, IgG1 titrated, anti-human Fc HRP
[6] = biological target: S protein of SARS-COV-2 (Sino Biologics) (SARS-CoV-2, UniProt P0DTC2 16-1213); assay: ELISA, S protein (Sino Biologics) coated, anti-human Fc HRP
[7] = biological target: T2, RBD of SARS-CoV-2 spike protein S1 …; assay: ELISA, RBD coated, IgG1 titrated, anti-human Fc HRP
[8] = biological target: T1, S1 protein of SARS-CoV-2 (recombinant, …)
[9] = biological target: T1, S1 protein of SARS-CoV-2 (recombinant, …); remark: listed apart in the source
[10] = biological target: T1, S1 protein of SARS-CoV-2 (recombinant, …); remark: listed apart in the source
[11] = biological target: T2, RBD of SARS-CoV-2 spike protein S1 …
[12] = biological target: T1, S1 protein of SARS-CoV-2 (recombinant, …); assay: ELISA, S1 coated, scFv titrated, anti-Flag HRP
[13] = biological target: T1, S1 protein of SARS-CoV-2 (recombinant, …); remark: listed apart in the source
[14] = biological target: T2, RBD of SARS-CoV-2 spike protein S1 …; assay: ELISA, RBD coated, scFv titrated, anti-Flag HRP
[15] = biological target: T5, S1-Fc (SARS-CoV-2 S1 protein, Fc fusion) (SARS-CoV-2, UniProt P0DTC2 16-685); assay: SPR (Biacore T200), S1 captured on anti-human Fc chip, scFv injected
[16] = biological target: T6, SARS-CoV-2-RBD (328-533)-Fc (SARS-CoV-2); assay: SPR (Biacore T200), RBD captured on anti-human Fc chip, scFv injected
T6 construct: also called RBD-Fc

[17] = biological target: T6, SARS-CoV-2-RBD (328-533)-Fc; assay: as above; remark: listed apart in the source
[18] = biological target: T5, S1-Fc (SARS-CoV-2 S1 protein, Fc fusion); assay: SPR (Biacore T200), S1 captured on anti-human Fc chip, scFv injected; remark: listed apart in the source
[19] = biological target: T3, RBD of SARS-COV (ACRO Biosciences); assay: ELISA, SARS-COV RBD (ACRO) coated, anti-human Fc HRP
[20] = biological target: T4, S1 protein of SARS-COV (ACRO …); assay: ELISA, SARS-COV S1 (ACRO) coated, anti-human Fc HRP
[21] = biological target: HIS tagged S1 of SARS-CoV-2 (SARS-CoV-2, UniProt P0DTC2 16-685)
[22] = biological target: SARS-CoV-2-RBD (328-533)-His (SARS-CoV-2, UniProt P0DTC2 328-533)
[23] = biological target: T3, RBD of SARS-COV (ACRO Biosciences); assay: SPR (Biacore T200), IgG captured on protein A chip, SARS-COV RBD injected
[24] = biological target: T4, S1 protein of SARS-COV (ACRO …); assay: SPR (Biacore T200), IgG captured on protein A chip, SARS-COV S1 injected

| Binder | Kd [1] [nM] | koff [1] [s⁻¹] | kon [1] [M⁻¹ s⁻¹] | Kd [2] [nM] | koff [2] [s⁻¹] | kon [2] [M⁻¹ s⁻¹] | binding result [3] | binding result [4] | EC50 [5] [nM] | EC50 [6] [nM] | EC50 [7] [nM] | IC50 [8] [nM] | IC50 [9] [nM] | IC50 [10] [nM] | IC50 [11] [nM] | EC50 [12] [nM] | IC50 [13] [nM] | EC50 [14] [nM] | Kd [15] [nM] | koff [15] [s⁻¹] | also measured |
| --- | --- | --- | --- | --- | --- | --- | --- | --- | --- | --- | --- | --- | --- | --- | --- | --- | --- | --- | --- | --- | --- |
| B1 | 61.9 | 0.00507 | 82000 | 6.4 | 0.00578 | 903000 | no binding (tested: 200 nM (highest concentration tested)) | no binding (tested: 200 nM (highest concentration tested)) | 0.045 | 0.032 | 0.045 | – | – | – | – | – | – | – | – | – | – |
| B2 | – | – | – | – | – | – | no binding (tested: 200 nM (highest concentration tested)) | no binding (tested: 200 nM (highest concentration tested)) | 0.103 | 0.462 | 0.053 | 3.79 | 1.9 | – | – | – | – | – | – | – | – |
| B3 | – | – | – | – | – | – | – | – | – | – | – | – | – | 6.58 | 6.69 | 0.737 | 8.57 | 0.486 | 13.2 | 0.000687 | kon [15]: 51900 M⁻¹ s⁻¹; Kd [16]: 9.61 nM; koff [16]: 0.000469 s⁻¹; kon [16]: 48900 M⁻¹ s⁻¹ |
| B4 | – | – | – | – | – | – | – | – | – | – | – | – | – | 4.69 | < 1 | 0.154 | 4.94 | 0.16 | 3.35 | 0.00106 | Kd [17]: 1.9 nM; koff [17]: 0.000906 s⁻¹; kon [17]: 477000 M⁻¹ s⁻¹; Kd [18]: 3.35 nM; koff [18]: 0.00106 s⁻¹; kon [18]: 316000 M⁻¹ s⁻¹; kon [15]: 316000 M⁻¹ s⁻¹; Kd [16]: 1.89 nM; koff [16]: 0.000906 s⁻¹; kon [16]: 477000 M⁻¹ s⁻¹ |
| B5 | 1.15 | 0.000292 | 254000 | 0.131 | 0.00032 | 2.43e+06 | – | – | 0.084 | 0.0846 | 0.08 | 0.774 | 2.71 | – | – | – | – | – | – | – | EC50 [19]: 0.035 nM; EC50 [20]: 0.027 nM; Kd [21]: 2.3 nM; koff [21]: 0.000498 s⁻¹; kon [21]: 217000 M⁻¹ s⁻¹; Kd [22]: 0.554 nM; koff [22]: 0.000807 s⁻¹; kon [22]: 1.46e+06 M⁻¹ s⁻¹; Kd [23]: 3.69 nM; koff [23]: 0.00675 s⁻¹; kon [23]: 1.83e+06 M⁻¹ s⁻¹; Kd [24]: 57.1 nM; koff [24]: 0.00433 s⁻¹; kon [24]: 75800 M⁻¹ s⁻¹ |
